# What was measured:
# [1] = system: mAKAP-associated phosphatase (PP2A); assay: Phosphatase activity of mAKAP complexes immunoprecipitated from adult rat heart extracts ([32P]histone); assay type: biochemical; conditions: 50 μM CPT-cAMP, 5 min pre-incubation
# Experimental: (§1) For immunoprecipitation of endogenous, native mAKAP complexes, adult rat hearts (Pel-Freeze) were homogenized in 10 ml HSE buffer. After centrifugation at 15,000×g for 25 minutes, clarified extracts were immunoprecipitated as above.
# (§2) Phosphatase Assay—Phosphatase activity was measured according to the method of Ahn et al. using ^32P-labeled histone as substrate (Ahn et al. 2007). Histone was radiolabeled in reactions containing 250 mM MOPS, pH 7.4, 2.5 mM MgAc, 100 mM β-mercaptoethanol, purified PKA catalytic subunit, 1 μM ATP, 20 μM histone, and 1 mCi [γ-^32P]ATP (6000 Ci/mmol). The reaction was terminated by the addition of 50% TCA, and [^32P]histone was purified from free radionucleotide by centrifugation. The [^32P]histone pellet was washed with 1 ml of ether/ethanol/HCL (4:1:0.1) once and 1 ml of ether/ethanol (4:1) three times. The substrate was then suspended in 200 μl PP2A assay buffer (25 mM Tris, pH 7.4, 1 mM DTT, and 10 mM MgCl2) before precipitation with 50% TCA. After repeated washing, the [^32P]histone was suspended in 200 μl PP2A buffer.
# (§3) To measure phosphatase activity, immunoprecipitated protein complexes were washed twice in HSE buffer and once in PP2A reaction buffer. […] TCA supernatants containing released ^32PO4 were measured by scintillation counting.
# [2] = target: T1, mAKAP-associated phosphatase (PP2A) (Rattus norvegicus, UniProt P63331); assay: as above; assay type: biochemical; conditions: 10 nM
# T1 construct: For immunoprecipitation of endogenous, native mAKAP complexes; tissue Pel-Freeze; host or cells: adult rat heart
# Experimental: as §1, §2, §3
# [3] = system: mAKAP-associated phosphodiesterase; assay: PDE activity of native mAKAP complexes immunoprecipitated from adult rat heart extracts; assay type: biochemical
# Experimental: as §1
# PDE assay—PDE activity associated with immunoprecipitated protein complexes was assayed according to the method by Beavo et al. (Beavo, Bechtel, and Krebs 1974). Samples were assayed in 45 μl PDE buffer A (100 mM MOPS, pH 7.5, 4 mM EGTA, 1.0 mg/ml bovine serum albumin) and 50 μl PDE buffer B [100 mM MOPS, pH 7.5, 75 mM MgAc, 1 μM cAMP and 100,000 cpm [^3H]cAMP (Dupont, NEN)]. Inhibitors were included as indicated.
# [4] = system: mAKAP-bound PDE4D3; assay: PDE activity associated with mAKAP immunoprecipitates from transfected HEK293 cells ([3H]cAMP); assay type: cell-based; conditions: 300 μM OA 30 min then 5 μM Fsk 10 min
# Experimental: Immunoprecipitation—HEK293 cells were used in this project as a heterologous system lacking mAKAP in which the various wildtype and mutant proteins could be easily expressed. Cells cultured on 60 mm plates were transfected at 50%-70% confluency by the calcium phosphate method, using 6 μg of each DNA construct per plate. Cells were harvested 24 hours after transfection in 0.5 ml HSE buffer (HEPES, pH 7.4, 150 mM NaCl, 5 mM EDTA, 1% Triton X-100 and protease inhibitors). Supernatants were incubated with 3 μg antibody and 15 μl prewashed protein A- or G-agarose beads. Following overnight incubation at 4° C., the immunoprecipitates were washed three times with the same buffer. Bound proteins were analyzed by immunoblotting. […]
# As phosphorylation of PDE4D3 Ser-54 increases phosphodiesterase activity 2 fold (Sette and Conti 1996), whether OA treatment would also increase the activity of mAKAP-bound PDE4D3 was tested. mAKAP complexes were immunoprecipitated from transfected HEK293 cells and assayed for associated phosphodiesterase activity (FIG. 8B). mAKAP-associated phosphodiesterase activity in untreated cells was detected only when mAKAP was co-expressed with PDE4D3 (FIG. 8B, bar 1, and data not shown), consistent with a previous observation that PDE4D3 accounts for all of the phosphodiesterase activity associated with mAKAP in cardiac myocytes (Dodge et al. 2001).
# [5] = system: SRF Ser^103; assay: SRF Ser103 phosphorylation in neonatal rat ventricular myocytes (NRVM); assay type: cell-based; conditions: 1 hour, 1 μM OA or 1 μg/ml CsA
# Experimental: (§4) Neonatal Rat Ventricular Myocyte Culture: 1-3 day old Sprague-Dawley rats were decapitated, and the excised hearts placed in 1× ADS Buffer (116 mM NaCl, 20 mM HEPES, 1 mM NaH2PO4, 5.5 mM glucose, 5.4 mM KCl, 0.8 mM MgSO4, pH 7.35). The atria were carefully removed and the blood washed away. The ventricles were minced and incubated with 15 mL 1× ADS Buffer containing 3.3 mg type II collagenase (Worthington, 230 U/mg) and 9 mg Pancreatin (Sigma) at 37° C. with gentle shaking. After 15 minutes, the dissociated cardiac myocytes were separated by centrifugation at 50 g for 1 minute, resuspended in 4 mL horse serum and incubated at 37° C. with occasional agitation. The steps for enzymatic digestion and isolation of myocytes were repeated 10-12 times to maximize yield. The myocytes were pooled and spun down again at 50 g for 2 minutes and resuspended in Maintenance Medium (DMEM:M199, 4:1) supplemented with 10% horse serum and 5% fetal bovine serum. To remove any contaminating fibroblasts, the cells were pre-plated for 1 hour before plating on gelatin-coated tissue culture plastic ware. This procedure yields >90% pure cardiac myocytes. After 1 day culture, the media was changed to maintenance medium containing 0.1 mM bromodeoxyuridine to suppress fibroblast growth. […]
# [6] = system: PDE4D3 Ser-54; assay: PDE4D3 Ser-54 phosphorylation in mAKAP immunoprecipitates from transfected HEK293 cells (phospho-specific immunoblot); assay type: cell-based; conditions: HEK293 cells over-expressing mAKAP and PDE4D3; OA or 500 μM CsA for 30 min
# [7] = system: full-length wildtype mAKAP (GFP-tagged) expressed in HEK293 cells
# [8] = system: full-length mAKAP mutant with an internal deletion of residues 2053-2073 comprising the PKA binding site (ΔPKA)
# [9] = system: adult rat ventricular myocytes (ARVM); assay: ARVM morphologic hypertrophy (cell width and length by immunocytochemistry); assay type: cell-based; conditions: adenoviral expression; for Iso-induced ARVM hypertrophy: 10 μM Iso 24 hours
# Experimental: Adult rat ventricular myocyte isolation and culture: 2-3 month old rats were anesthetized using Ketamine (80-100 mg/kg) and Xylazine (5-10 mg/kg) IP following 1000 U heparinization for cardiac excision. The heart was transferred immediately into chilled perfusion buffer (NaCl 120 mM, KCl 5.4 mM, Na2HPO4·7H2O 1.2 mM, NaHCO320.0 mM, MgCl2·6H2O 1.6 mM, Taurine 5 mM, Glucose 5.6 mM, 2,3-Butanedione monoxime 10 mM) pre-equilibrated with 95% O2 and 5% CO2. After removal of extraneous tissue, the heart was attached via the aorta to a Harvard Langendorff apparatus cannula. Ca^2+-free perfusion was used to flush out remaining blood with a constant rate of 8-10 mL/min at 37° C. The heart was then digested through circulatory perfusion with 50 mL perfusion buffer containing 125 mg type II collagenase (Worthington, 245 U/mg), 0.1 mg protease (Sigma type XIV) and 0.1% BSA. After perfusion, the atria were removed and the ventricular myocytes dissociated by slicing and repetitive pipetting. The debris was filtered by a 200 μm nylon mesh, and the myocytes collected by one minute centrifugation at 50 g. Ca^2+ concentration in the buffer was gradually recovered to 1.8 mM and the myocytes were resuspended in ACCT medium (M199 Medium (Invitrogen 11150-059), Creatine 5 mM, L-carnitine 2 mM, Taurine 5 mM, HEPES 25 mM, 2,3-Butanedione monoxime 10 mM, BSA 0.2% and 1×Insulin-Transferrin-Selenium Supplement) and plated on 10 μg/ml laminin pre-coated dishes. Cells were washed with ACCT medium 1.5 hours after plating and subjected to adenoviral infection or siRNA transfection, in which 100-200 Multiplicity of Infection (MOI) of adenovirus and 100 nmol/L siRNA mixed with Dharmafect1 (Dharmacon) were used, respectively. Adrenergic agonists were added the next day, with biochemical assay and morphological measurement performed after 24 hours of stimulation.
# Immunocytochemistry: Myocytes on coverslips were fixed in 3.7% formaldehyde in PBS for 1 hour, permeabilized with 0.3% Triton X-100, and blocked in PBS containing 0.2% BSA and 1% horse serum. The slides were then sequentially incubated for 1 hour with primary and Alexa fluorescent dye-conjugated specific-secondary antibodies (Invitrogen, 1:1000) diluted in blocking buffer. The slips were washed three times with blocking buffer. 1 μg/mL Hoechst 33258 was included in the last wash stop to label nuclei. Slides were sealed in SlowFade Gold antifade buffer (Invitrogen, S36938) for fluorescent microscopy. Wide-field images were acquired using a Leica DM4000 Microscope.
# [10] = system: SRF Ser^103; assay: SRF Ser103 phosphorylation in adult rat ventricular myocytes (ARVM); assay type: cell-based; conditions: 10 μM Iso 1 day
# Experimental: Adult rat ventricular myocyte isolation and culture: 2-3 month old rats were anesthetized using Ketamine (80-100 mg/kg) and Xylazine (5-10 mg/kg) IP following 1000 U heparinization for cardiac excision. The heart was transferred immediately into chilled perfusion buffer (NaCl 120 mM, KCl 5.4 mM, Na2HPO4·7H2O 1.2 mM, NaHCO320.0 mM, MgCl2·6H2O 1.6 mM, Taurine 5 mM, Glucose 5.6 mM, 2,3-Butanedione monoxime 10 mM) pre-equilibrated with 95% O2 and 5% CO2. After removal of extraneous tissue, the heart was attached via the aorta to a Harvard Langendorff apparatus cannula. Ca^2+-free perfusion was used to flush out remaining blood with a constant rate of 8-10 mL/min at 37° C. The heart was then digested through circulatory perfusion with 50 mL perfusion buffer containing 125 mg type II collagenase (Worthington, 245 U/mg), 0.1 mg protease (Sigma type XIV) and 0.1% BSA. After perfusion, the atria were removed and the ventricular myocytes dissociated by slicing and repetitive pipetting. The debris was filtered by a 200 μm nylon mesh, and the myocytes collected by one minute centrifugation at 50 g. […]
# [11] = system: mAKAPβ-PP2A association; assay: Co-immunoprecipitation of endogenous mAKAPβ-PP2A in myocytes; assay type: cell-based, rat; conditions: NRVM infected with adenovirus
# Experimental: as §4
# Chain of full-length mAKAP mutant with an internal deletion of residues 2053-2073 comprising the PKA binding site (ΔPKA) (chain, as listed by the source mutant): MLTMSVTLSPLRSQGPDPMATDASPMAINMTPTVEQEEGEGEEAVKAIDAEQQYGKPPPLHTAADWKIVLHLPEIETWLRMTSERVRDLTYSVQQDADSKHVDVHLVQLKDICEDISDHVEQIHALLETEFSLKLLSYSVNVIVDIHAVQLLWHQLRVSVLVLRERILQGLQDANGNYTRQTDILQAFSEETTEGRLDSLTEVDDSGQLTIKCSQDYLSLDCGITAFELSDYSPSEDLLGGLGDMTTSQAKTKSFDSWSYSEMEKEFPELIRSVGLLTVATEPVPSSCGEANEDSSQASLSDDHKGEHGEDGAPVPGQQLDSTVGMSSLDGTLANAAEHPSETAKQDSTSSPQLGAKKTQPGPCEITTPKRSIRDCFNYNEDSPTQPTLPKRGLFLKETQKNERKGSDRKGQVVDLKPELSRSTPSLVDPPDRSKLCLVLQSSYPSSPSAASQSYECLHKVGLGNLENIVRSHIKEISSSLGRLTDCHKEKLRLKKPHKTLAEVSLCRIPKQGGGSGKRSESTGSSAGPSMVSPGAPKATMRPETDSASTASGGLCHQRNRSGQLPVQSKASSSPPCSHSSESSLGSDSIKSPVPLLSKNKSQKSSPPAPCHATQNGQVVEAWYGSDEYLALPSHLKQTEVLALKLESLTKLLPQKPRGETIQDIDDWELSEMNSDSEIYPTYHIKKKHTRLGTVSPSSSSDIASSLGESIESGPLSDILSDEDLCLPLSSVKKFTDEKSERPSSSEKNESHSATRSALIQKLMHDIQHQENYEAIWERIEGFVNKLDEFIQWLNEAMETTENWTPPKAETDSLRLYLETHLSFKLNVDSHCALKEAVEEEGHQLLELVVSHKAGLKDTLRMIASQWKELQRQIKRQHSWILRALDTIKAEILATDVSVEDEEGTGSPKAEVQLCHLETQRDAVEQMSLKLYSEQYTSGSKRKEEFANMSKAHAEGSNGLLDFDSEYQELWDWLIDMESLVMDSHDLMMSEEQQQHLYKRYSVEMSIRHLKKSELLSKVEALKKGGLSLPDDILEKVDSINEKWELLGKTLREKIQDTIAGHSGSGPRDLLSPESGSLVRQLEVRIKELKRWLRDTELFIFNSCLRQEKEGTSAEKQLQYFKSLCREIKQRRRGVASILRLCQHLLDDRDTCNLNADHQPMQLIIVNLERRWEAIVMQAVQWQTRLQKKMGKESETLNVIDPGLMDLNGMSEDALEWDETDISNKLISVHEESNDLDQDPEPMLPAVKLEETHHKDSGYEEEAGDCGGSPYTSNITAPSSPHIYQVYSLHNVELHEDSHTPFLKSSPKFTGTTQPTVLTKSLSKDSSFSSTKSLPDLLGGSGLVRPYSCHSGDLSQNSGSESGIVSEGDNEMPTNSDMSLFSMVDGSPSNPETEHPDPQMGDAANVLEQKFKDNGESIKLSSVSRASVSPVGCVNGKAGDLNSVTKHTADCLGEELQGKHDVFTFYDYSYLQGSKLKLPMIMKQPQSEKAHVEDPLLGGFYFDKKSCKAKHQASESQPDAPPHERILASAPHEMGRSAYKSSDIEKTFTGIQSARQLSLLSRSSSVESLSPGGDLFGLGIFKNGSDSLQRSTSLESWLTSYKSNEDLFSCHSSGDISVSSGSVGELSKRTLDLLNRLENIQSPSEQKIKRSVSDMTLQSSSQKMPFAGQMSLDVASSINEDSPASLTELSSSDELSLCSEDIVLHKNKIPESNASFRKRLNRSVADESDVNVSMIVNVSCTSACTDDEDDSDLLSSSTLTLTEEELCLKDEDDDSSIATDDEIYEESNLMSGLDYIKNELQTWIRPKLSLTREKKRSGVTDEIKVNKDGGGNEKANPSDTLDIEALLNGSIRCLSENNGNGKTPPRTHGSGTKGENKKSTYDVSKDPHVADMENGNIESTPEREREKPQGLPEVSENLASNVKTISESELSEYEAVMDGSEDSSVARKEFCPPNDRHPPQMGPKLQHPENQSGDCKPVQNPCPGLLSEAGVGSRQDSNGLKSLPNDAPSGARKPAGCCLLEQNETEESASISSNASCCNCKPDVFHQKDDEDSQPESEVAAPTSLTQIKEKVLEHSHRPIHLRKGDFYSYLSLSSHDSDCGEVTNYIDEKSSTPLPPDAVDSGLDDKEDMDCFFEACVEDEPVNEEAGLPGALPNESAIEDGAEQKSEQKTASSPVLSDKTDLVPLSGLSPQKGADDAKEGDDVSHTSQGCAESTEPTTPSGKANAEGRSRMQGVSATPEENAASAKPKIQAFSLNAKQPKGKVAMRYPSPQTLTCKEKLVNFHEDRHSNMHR
# T1 sequence (P63331 whole entry): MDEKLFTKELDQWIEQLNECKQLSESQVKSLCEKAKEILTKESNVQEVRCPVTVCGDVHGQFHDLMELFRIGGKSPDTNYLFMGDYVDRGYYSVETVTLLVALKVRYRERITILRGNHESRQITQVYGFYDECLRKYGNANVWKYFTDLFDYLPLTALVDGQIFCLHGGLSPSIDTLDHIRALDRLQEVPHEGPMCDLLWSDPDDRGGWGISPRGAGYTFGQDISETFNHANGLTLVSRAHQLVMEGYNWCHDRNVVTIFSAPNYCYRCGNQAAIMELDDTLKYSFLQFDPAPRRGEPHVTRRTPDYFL
# Chain of full-length wildtype mAKAP (GFP-tagged) expressed in HEK293 cells (chain, as listed by the source): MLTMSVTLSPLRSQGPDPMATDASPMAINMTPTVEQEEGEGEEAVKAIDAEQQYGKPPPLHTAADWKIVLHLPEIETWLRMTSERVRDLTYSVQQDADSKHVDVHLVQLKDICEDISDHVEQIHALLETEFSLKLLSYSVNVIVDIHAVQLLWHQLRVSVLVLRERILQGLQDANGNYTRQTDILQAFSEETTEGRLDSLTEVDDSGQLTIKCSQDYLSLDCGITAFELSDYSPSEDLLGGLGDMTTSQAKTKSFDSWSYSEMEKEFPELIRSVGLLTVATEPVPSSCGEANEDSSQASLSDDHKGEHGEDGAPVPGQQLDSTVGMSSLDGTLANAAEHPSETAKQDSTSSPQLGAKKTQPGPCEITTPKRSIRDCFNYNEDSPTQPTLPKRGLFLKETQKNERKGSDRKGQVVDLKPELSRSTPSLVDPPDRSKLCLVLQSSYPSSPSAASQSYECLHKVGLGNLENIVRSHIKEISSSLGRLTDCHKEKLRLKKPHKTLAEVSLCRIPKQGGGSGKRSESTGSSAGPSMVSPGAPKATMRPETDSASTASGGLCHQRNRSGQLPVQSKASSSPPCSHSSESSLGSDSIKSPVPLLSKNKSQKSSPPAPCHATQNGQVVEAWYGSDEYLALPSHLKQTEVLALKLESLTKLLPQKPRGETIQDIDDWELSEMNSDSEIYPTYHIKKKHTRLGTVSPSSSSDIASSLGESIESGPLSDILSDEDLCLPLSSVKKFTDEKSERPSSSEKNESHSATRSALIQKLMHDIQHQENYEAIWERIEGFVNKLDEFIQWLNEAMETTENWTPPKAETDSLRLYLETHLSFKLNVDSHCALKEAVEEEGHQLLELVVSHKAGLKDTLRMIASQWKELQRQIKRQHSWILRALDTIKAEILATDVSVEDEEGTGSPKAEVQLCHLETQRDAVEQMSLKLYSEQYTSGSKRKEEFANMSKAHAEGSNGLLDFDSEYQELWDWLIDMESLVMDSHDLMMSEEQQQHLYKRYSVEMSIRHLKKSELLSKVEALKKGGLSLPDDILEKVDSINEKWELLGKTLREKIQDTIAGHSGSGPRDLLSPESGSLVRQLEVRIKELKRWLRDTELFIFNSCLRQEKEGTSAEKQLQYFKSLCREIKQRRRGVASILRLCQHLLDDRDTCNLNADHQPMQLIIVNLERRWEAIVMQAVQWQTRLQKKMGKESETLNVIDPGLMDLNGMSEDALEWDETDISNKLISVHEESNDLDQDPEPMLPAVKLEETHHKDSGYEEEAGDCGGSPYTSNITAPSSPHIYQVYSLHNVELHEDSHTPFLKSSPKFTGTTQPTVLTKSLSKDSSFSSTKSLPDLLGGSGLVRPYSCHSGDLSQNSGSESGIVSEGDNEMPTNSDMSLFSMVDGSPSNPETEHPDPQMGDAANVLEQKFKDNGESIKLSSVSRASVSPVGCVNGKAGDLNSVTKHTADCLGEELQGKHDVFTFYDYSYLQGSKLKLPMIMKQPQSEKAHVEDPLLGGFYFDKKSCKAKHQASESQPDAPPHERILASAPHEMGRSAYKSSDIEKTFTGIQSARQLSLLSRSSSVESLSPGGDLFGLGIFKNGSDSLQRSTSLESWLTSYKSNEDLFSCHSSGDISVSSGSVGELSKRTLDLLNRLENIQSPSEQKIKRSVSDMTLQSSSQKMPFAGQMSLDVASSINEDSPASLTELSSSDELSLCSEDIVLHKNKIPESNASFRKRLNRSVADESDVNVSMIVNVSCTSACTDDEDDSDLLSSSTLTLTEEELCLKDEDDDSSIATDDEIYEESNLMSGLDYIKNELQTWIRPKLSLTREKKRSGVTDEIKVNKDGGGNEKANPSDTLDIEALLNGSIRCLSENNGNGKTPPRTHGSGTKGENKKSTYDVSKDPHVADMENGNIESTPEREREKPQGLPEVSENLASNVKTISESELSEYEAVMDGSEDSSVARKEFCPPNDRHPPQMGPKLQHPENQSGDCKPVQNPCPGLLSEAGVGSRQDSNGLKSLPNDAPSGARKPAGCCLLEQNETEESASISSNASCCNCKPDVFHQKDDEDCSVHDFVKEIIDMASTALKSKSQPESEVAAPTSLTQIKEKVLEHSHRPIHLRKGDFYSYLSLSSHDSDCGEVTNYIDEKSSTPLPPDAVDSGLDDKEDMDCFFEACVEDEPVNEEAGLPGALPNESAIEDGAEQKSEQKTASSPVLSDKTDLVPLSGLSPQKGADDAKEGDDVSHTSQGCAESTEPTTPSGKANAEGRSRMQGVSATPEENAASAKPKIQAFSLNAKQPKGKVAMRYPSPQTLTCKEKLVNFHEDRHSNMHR
molecule,measurement,setting,value
"Nc1ncnc2c1nc(Sc1ccc(Cl)cc1)n2[C@@H]1O[C@@H]2COP(=O)([O-])O[C@H]2[C@H]1O.[Na+] [CPT-cAMP, 8-(4-chlorophenylthio)adenosine 3′,5′-cyclic monophosphate]",increase of mAKAP-associated phosphatase activity,[1],2.5 fold
"C=C1[C@@H](O)[C@@H]2O[C@]3(CC[C@H](/C=C/[C@@H](C)[C@@H]4CC(C)=C[C@@]5(O[C@H](C[C@@](C)(O)C(=O)O)CC[C@H]5O)O4)O3)CC[C@H]2O[C@@H]1[C@@H](O)C[C@H](C)[C@H]1O[C@@]2(CCCCO2)CC[C@H]1C [OA, okadaic acid]",inhibition of mAKAP-associated phosphatase activity,[2],all immunoprecipitated phosphatase activity was inhibited
same,increase in mAKAP-associated phosphodiesterase activity when PKA was also inhibited,[3]; 10 nM OA with 50 nM PKI,60%
same,increase in mAKAP-associated phosphodiesterase activity,"[3]; 10 nM OA, native complexes from adult rat heart",30%
same,"mAKAP-bound PDE4D3 activity, Fsk and OA treatment together",[4],synergistically increased PDE4D3 activity
same,baseline phosphorylation of SRF Ser^103,[5],promoted baseline phosphorylation of SRF Ser^103
same,baseline phosphorylation of PDE4D3 Ser-54,[6],increase in the baseline phosphorylation of PDE4D3 Ser-54
PKA (cAMP-dependent protein kinase) endogenous in HEK293 cells,phosphatase activity in mAKAP immunoprecipitates after Fsk/IBMX,[7],cAMP elevation increased phosphatase activity in mAKAP complexes 1.7 fold
same,B56δ Ser-566 phosphorylation in mAKAP immunoprecipitates,[8],B56δ phosphorylation was detected only after FSK/IBMX treatment and only when B56δ was co-expressed with wildtype mAKAP and not the ΔPKA mutant
same,phosphatase activity in mAKAP immunoprecipitates after Fsk/IBMX,[8],no increase was obtained when B56δ was co-expressed with the mAKAP ΔPKA mutant scaffold
"PBD: myc-tagged mAKAP aa 2134-2314 fragment, PP2A anchoring disruptor, expressed by adenovirus (protein, myc-tagged rat mAKAP PBD, myc-tagged mAKAP aa 2134-2314 fragment, PP2A anchoring disruptor, expressed by adenovirus) MEQKLISEEDLSPGMLTMSVTLSPLRSQTPLPPDAVDSGLDDKEDMDCFFEACVEDEPVNEEAGLPGALPNESAIEDGAEQKSEQKTASSPVLSDKTDLVPLSGLSPQKGADDAKEGDDVSHTSQGCAESTEPTTPSGKANAEGRSRMQGVSATPEENAASAKPKIQAFSLNAKQPKGKVAMRYPSPQTLTCKEKLVNFHEDRHSNMHR",Iso-induced ARVM hypertrophy,[9],attenuated the eccentric hypertrophy
same,Iso-induced ARVM hypertrophy,[9]; listed as PDB,promoted ARVM concentric hypertrophy
same,PE-induced ARVM hypertrophy,[9]; 20 μM PE 24 hours,did not enhance nor diminish
same,basal ARVM morphology,[9]; no drug,no effect
same,Iso-induced SRF Ser^103 phosphorylation,[10],potentiated the induction of SRF Ser^103 phosphorylation
same,endogenous mAKAPβ-PP2A association,[11],competed endogenous mAKAPβ-PP2A association

# Source: US11938198B2, “Treatment of heart disease by disruption of the anchoring of PP2A” (University of Miami, priority 2019, dated 2024)
